T1: Shulin (Q22YU3), recombinant full-length, C-terminal 2xStrep (Tetrahymena thermophila, UniProt Q22YU3 1-1200)
T1 sequence (looked up): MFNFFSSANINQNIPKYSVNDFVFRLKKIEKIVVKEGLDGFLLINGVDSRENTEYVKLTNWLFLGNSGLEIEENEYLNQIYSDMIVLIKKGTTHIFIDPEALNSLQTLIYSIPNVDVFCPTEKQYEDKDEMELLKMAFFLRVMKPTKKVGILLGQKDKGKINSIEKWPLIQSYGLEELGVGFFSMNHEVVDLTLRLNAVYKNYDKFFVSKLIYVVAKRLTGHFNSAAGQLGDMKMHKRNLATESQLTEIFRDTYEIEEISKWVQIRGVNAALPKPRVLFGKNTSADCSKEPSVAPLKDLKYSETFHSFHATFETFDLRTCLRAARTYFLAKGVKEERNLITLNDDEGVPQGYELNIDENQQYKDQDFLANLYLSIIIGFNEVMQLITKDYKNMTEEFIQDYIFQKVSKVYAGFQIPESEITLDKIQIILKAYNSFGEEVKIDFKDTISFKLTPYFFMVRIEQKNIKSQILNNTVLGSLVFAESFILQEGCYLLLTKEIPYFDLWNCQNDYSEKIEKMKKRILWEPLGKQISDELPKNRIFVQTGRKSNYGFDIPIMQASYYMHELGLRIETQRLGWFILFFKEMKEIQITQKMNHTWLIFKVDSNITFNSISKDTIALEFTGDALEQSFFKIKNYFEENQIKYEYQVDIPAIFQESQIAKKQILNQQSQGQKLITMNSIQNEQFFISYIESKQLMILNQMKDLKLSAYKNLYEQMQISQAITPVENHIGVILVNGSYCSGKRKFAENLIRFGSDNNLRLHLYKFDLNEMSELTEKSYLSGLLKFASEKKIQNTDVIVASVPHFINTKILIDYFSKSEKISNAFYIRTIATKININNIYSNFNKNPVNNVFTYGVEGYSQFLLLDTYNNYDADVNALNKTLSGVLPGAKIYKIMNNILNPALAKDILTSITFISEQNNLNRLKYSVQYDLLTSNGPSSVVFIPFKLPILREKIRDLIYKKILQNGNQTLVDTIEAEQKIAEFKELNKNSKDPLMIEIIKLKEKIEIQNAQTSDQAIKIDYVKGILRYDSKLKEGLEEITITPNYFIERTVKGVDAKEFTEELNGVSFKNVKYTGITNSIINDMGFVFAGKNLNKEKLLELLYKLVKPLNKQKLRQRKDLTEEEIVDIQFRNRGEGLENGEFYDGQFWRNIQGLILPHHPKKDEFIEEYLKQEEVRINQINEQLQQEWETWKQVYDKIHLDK

T2: Dic3, ODA intermediate chain (Tetrahymena thermophila, UniProt Q23FU1 1-670)
T2 sequence (looked up): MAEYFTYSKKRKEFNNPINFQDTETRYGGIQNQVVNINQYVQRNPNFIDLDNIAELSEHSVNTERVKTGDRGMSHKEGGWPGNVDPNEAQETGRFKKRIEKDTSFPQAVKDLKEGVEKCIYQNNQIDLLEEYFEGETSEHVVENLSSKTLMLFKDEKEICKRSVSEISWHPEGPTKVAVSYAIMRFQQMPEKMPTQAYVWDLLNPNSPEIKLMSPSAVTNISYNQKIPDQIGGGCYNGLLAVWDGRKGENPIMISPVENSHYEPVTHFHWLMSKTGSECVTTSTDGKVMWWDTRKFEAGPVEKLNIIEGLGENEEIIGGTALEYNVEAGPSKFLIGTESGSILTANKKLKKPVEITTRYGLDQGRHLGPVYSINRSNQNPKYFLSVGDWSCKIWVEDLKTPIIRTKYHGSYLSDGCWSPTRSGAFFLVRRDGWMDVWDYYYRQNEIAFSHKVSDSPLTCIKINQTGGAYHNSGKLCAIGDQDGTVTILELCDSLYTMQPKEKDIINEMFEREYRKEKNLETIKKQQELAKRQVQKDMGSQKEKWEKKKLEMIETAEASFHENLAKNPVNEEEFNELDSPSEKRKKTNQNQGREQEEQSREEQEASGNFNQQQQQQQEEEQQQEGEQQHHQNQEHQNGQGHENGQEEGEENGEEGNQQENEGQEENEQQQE

B1: Lc7b, roadblock ODA light chain (natural protein, Tetrahymena thermophila, UniProt Q22MV2 1-159, looked up)
chain: MIYKTSKEIQKSDQRIIQQRVENSIINNQIYQKSLKRKTSKRKVRHQANKKNFQKEMSEVEDTLNRIKTHKTVLGYLIVNSEGGVVRGAFKDEEESKNIANSIPLLTKKARSVVRDLDPTNDLVFLRIQTKLNEIMVAPDDEFSLIVIQTKGEKRDEND
B2: Dic2, ODA intermediate chain (natural protein, Tetrahymena thermophila, UniProt I7M008 1-667, looked up)
chain: MPPKQTKVVASRKTVMPISRAGRAQIRRKDSNTQNNMNDQGMEDEEIDQQREGMKNQYEQLTAQELNEDMPSKMLEPKNPQAPKNITVYDYYTRKFKTDELVDQMIVHFSMDGDYIWKESNEYKTQEEIRDTKKALIKEAMRKQESEEPGANHDEEAIKQTLRNKFNYNTRECQTINPSIRERGVSTEPPPSDTICGNITQWEIFDAYYAEIMKDHQIENKKKKEVDQDKKQDQSMYSTSFKRCCKIMERMVVQNDQEDKYHDYRYYWSQGDNLEAGKNEGHLLPIWRFSNEKQRKKNVTSICWNPLYPDLFAVSLGSYDFTKQRMGLICLYSLKNTTHPEYAFNCEAGVMCLDFHPKSAALLAVGLYDGTVLVYDIRNKHKKPIYQSTVRNQKHTDPVWQVKWNPDTSKNYNFYSISSDGRVMNWILMKNKLEPEEVILLRLVGKNEEESTLIGLACGLCFDFNKFEPHIFLVGTEEGKIHKCSRAYSGQYQETYNGHLLAVYKVKWNNFHPRTFISASADWTVRIWDSKYTSQIICFDLSMMVVDAVWAPYSSTVFACATMDKVQVYDLNVDKLNKLAEQKIVKQPKLTNLSFNYKDPILLVGDSHGGVTLVKLSPNLCKSGPEIKQTEDKKAMEEFKNVKIEDYEREKMENLLAVVSKWEREDA

Legend:
Experiment in all cases: cryo-EM structure
[1] = molecular target: T1, Shulin (Q22YU3), recombinant …
[2] = molecular target: B2
[3] = molecular target: T2, Dic3, ODA intermediate chain
[4] = molecular target: B1

binding result [1] | binding result [2] | binding result [3] | binding result [4] | Binder
binds | binds | binds |  | Lc8e, ODA light chain (natural protein, Tetrahymena thermophila, UniProt Q24DI9 1-93, looked up) MGDHANEQIIDMPENSEMKSMKNDAFSQAKFAVENYKFENKISSHIKKFFDEKYGPNWHCVVGKHFNAYVSYDSKNFIFFYEGQLAILLYRKG
 | binds | binds |  | Lc8, ODA light chain (natural protein, Tetrahymena thermophila, UniProt W7XJB1 1-111, looked up) MSDSDSDEGRVVEEPLPPHIIRFNDMAQHLLKKVIRQADVLIKENPQGLEKDIALNLVKFVKSQPEFKIGDGEWQCIIGKNFGCSLTFDANVLAFFDLLPSRKSILLFKSG
 | binds | binds |  | B1
 | binds | binds | binds | Lc7, roadblock ODA light chain (natural protein, Tetrahymena thermophila, UniProt I7MHB1 1-133, looked up) MAQDINADDQLKQLSALEGANGYVIFNESGIPLKRHEKSISHEKAVHIAALVSDLWNVSKKVIQRDLKTPENDIEVIRLRTKHSYEYIITQSGDFTMLAIQLCGKAIEEAKKAAAAAAAAAVVQEENKEKEKK
binds | binds | binds |  | Lc8d, ODA light chain (natural protein, Tetrahymena thermophila, UniProt Q24CE5 1-87, looked up) MNHEPEVKATDMEEDMIKRVKEIAINAVKEYKQEKQIAHYIKYEFDKIDGYGWNCIVGRNFGSHIIHQTKKYIFFKINELCLLLWKA
binds |  |  |  | B2
 | binds | binds |  | Lc8f (unnamed Lc8-like protein, UniProt ID Q22R86), ODA light chain (natural protein, Tetrahymena thermophila, UniProt Q22R86 1-111, looked up) MASNQQQKEDPKEQQQQYKTFMGARVLWPPECADDILEGAIRETQDALKKFEIAREGQKIAEHLKKYMDDHFDPYWHVFFGKNFGCQAVHNKNRFIYFYIEKTAFLMYQTQ
 | binds | binds |  | Lc9, Tctex-like ODA light chain (natural protein, Tetrahymena thermophila, UniProt A4VEB3 1-117, looked up) MGDTDKEYISEEVQKAIDDSVKQVFGIKDDSSQVTITYNKDKVNLWTQQIIDYTIRGLNKLGKHFKYCVTAILQQTNHAGISVQITAYQDTNTDGSLIQCYEINDIYAIVSVFAMAV
